The text below walks through data of the NTF2 design screens of Basanta et al. (2020).

This data set is described as follows: protease stability score; higher = more stable; yeast display proteolysis, trypsin and chymotrypsin.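 Note: log10 excess protease needed over predicted unfolded state with 0 meaning unfolded.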

As for “DDKQLDERVKEIQEVIRDNDPDSMKHLMDPNARMFVGDKEFHGRDEIVRHLKDLWHRVDHFHIKDFRASGNRAVVIAVFHVNGVTAHFKIFVVFQNGRIKQLRIKWRNEDEERRVRS”, the protease stability score turned out to be 0.674. In the case of “DDKQQMEEMLQKYQEALDTGDPEKLASLFDENAEVRIGDKVYRGHEDIKRAAKHLLDNVDHIEIRLRSLETRPGRIHARLQMNVRHNGKNTTKTLHVVARKQGDEFVVEHMEVE”, the protease stability score is 2.07. For “DDKRKADEFAKELVKAVQTGDSDNIRKLLDPNARINVGEKHYQGKDSMAKIMVRIAEDVDHISARVISVRDHNGSAVIHIEVQNNHNGRNSRTRVILHLTDHNGRIKLRERREG”, the protease stability score is 0.749.

In the case of “DDKTIKENLKVFNRGNPDDMKTLMDKDVRLEVGEKSVHGREQAQTWQDRYERQVDHRRVKSYSMNGNNVVADMVVQVNGREYEVRLEVHVHNGRIKVLRLEVRDEDDRRNLKRLLS”, the protease stability score stood at 0.211. “DDNEVETVRELIEQLETGDPDKFKEMVDKDVNINVGNKHVHGREEAVEQIRKEAREISFRIKVDRVEAHNGHVRVDFKFDAEVNGQPRSFRAIMVLEIEDGVVKHIELQMDRNQQQRLEK” had a protease stability score of 1.1. For the sequence “DDNLNRKVKKFWKVLQKGNPHEAKKYFDPNAHIVIGDQRIHGMDKFNRRMEHMKSHIRVQIDTLRMQDNGSQVDVTFEAVFNHNGRPKRYRARVRFEVHNGKAKSLTLKEDQ”, the protease stability score came to 0.265. As to “DDNLRKHVDNLIKLLQDGNPQELVNMADPNARVTIGDEQVHGREQLHEDWHRQAKEMRIQWDHYRVDAQGDKVRVNATRTLQTNGKPDSERFHVEMRLQGDKLQTERVDVHK”, the protease stability score is -0.265. As for “DDQAKRIVDEILTNMRTGDEDKLKTLIDPNARARVGEKEVHGWDDALKEIADKLRDIRIQIDRFSVKVTGDKVKIDFTAQNEHNGQPSTKKYERNYKIKNGRVKHFEDVSTQ”, the protease stability score is -0.192. “DDQALRLLEEWLKAVQEGDQERAHEMADPNAKFEVGDKTINGMDDVNEQIRRDTESMRYQVQNVHSITRPNHVQADVQFENEHNGNPDTNRMVIQARATNGRIQSLRIQDKK”: the protease stability score stood at 0.058. For the sequence “DDQDIRHILDQWRTGDFDQVRNQADENANIVYGDKRYHGREQLQEWMKTLKEQIDHFHIRSITQKGDKARFEAEADVNGVDVKFSVVISVHNGRVKFFEFQWTSEELLERIKHEIG”, the protease stability score came to 0.942. In turn, “DDQDLAKRLLDQLTKALQHGDERQLQRLMDKDVRVHIGDKNIHGREQAATFWVHLRKHVDRLSVRVKHVDIQGERVVFDMVFVFNHNGRQEHVRVVIVAKKDGDKIRIKRASQN” displayed a protease stability score of 2.16.

Take “DDQDRSHAVRLMRTGNFKEWADQADKDVSMQVGDKEVRGREQVIKMLKRLQEAADHVQVKSIHTQGEKMKADVTININGDQIRVIIEVVVEGDKLKELRIQFTSEHDEKIMHEQLQ”: the protease stability score is 1.14. The sequence “DDQEDAEKAARRFNKIVNENNFDDLLNQFDPNARIQVGDKQYHGRSEISKFMQKWKRQIDHLEAHLKDVKVDNGRIDVKFKFQFHKNGTRVDRDMSLDARRQGDQINIQELHLG” gave a protease stability score of 0.198. For the sequence “DDQEERDWNERMKQVLRTGDEHRLEQLMDENVRMRVGDSVVTGREKVRQVFHELMKQADKIEVKSVSAQGNEVLIRFVLNHNGKNDDVVIEVRVHNGRIKEIVIRSK”, the protease stability score is -0.001. In turn, “DDQEIAEQAARDFDTAVQEGDEDQIVRMADPNVQLQIGDERYRGREDLRKWIKDIRRQVDHVDVRVRDLKVQGEHVRARIEVQYTENGKTRRYQFEMTNNIHNGRVRMTQVNEK” displayed a protease stability score of 0.948.

In the case of “DDQELAEDAQRQFQEVLKTGDPKRANELMDEDARLEVGDTQLHGRERVAKHLSDLRKQADHIDVRVDTIRVHNGRVDADVRIRITKNGQNREFRARLYFTVQGDKVKMKRLQES”, the protease stability score was found to be 1.38. “DDQERREIAKNFQRGNEQVVKKLVDPNARIRVGDKTLHGRDQMSHVFKRLQEQVDHIDVKHYTISGEHIVIDAIFVINGKNIRMVIVVQVENGRVKRVDFKYTNEEQKKQLERDLS” displayed a protease stability score of 0.004. With “DDQEVKKLAHEVQKILEHGDPDQFADLFDKDARMTVGDKDLHGRERIRELAQRQQDRIDHVQLEEYQVHNGRVVLKMRVNVNGHDETINMTLHQRNGKVKEFTQQSR” the figure was 0.071; with “DDQHHAERFVEHVLKQLQTGNENDISKMVDENARVEYGDEEITGRESVVKHLIKEARRVDSIDLKVKSVSKEGDKINVTLVAVLDVNGRKDKRQFRVVMAKQGDKTNIISQHEK”, 0.965.

In turn, “DDQHQQKFAEEFNKNLEKGDFHRIAQMADENVRVRYGDKSVNGREHMSQFMKELRDRVDHMEIKDFHASNGKITITFVVNVNGKNITLHISIRVSNGRIHEVSLDPDQLKSLES” displayed a protease stability score of 2.

“DDQKARRLVERFIRALQHGDEDLARQLFDKNAKINIGDKTLTGREDVAKYVHHVHRHVDDVSVKSIQVDGDKAEVRVQFDINGKQHQMTFSAKYRNGRVQSATYKSQ” came in with a protease stability score of 0.524.

With “DDQKEIEKVLEVIKRMDTGDEKNVKEMFDPNARASVGERTYHGREDIQSFARELKERVDHVRIDSMSAHGDKATVDLRMNENGRTERYSVRVQIHNGRARHLRYTTK”, the protease stability score was -0.219. In turn, “DDQKKKELMQKMVEAYLSGHHEEVEKLGKDDGKVEAGDRKYEGSEQARKAAKQFKTYGVELRITDMQQDGDRLDVKAEAHMGGVTWEFTATVTADGGKVDKIQIDASDDAKKAIKDG” yielded a protease stability score of 0.725. “DDQKNLEKWVRDFQEVNKTGDPDRFRNLFPPNAEMTIGDKTIKGSETVREYMEHLVNRYDHLDVQVESIHAEGDKLTVKLRLVFNTNGKNDQYVNKVLLDDHNGRLKAHEVHQE” returned a protease stability score of 0.7.

Turning to “DDQKTANHLNKQFKDVWTSGDEHRLQELMDPNVRVDVGDKRYKGDEQVNKYFIDLLRNVDHVDFDVKDMKARGEKVLLVVDIRVDINGKRHRFNARQIFTVEGDQARVKVYHDG”, the protease stability score was 0.653. In turn, “DDQKVRVASELLKAIERGDPDQARELMDENAKMVIGETTFTGRDEAAKWISELKKHMRVQIQSVTFHDHNGQIVVNVTFEANINGDPFTMNLIVRVQVHNGRVQNVHYRLSEEQKRRLEQ” returned a protease stability score of 0.969. Regarding “DDQLFRVLQELWKALQEGDHKHAIDQAPEDARFHVGEKNYHGMEDAAKHLAEFYKQIRVRIEIKRYEINGDSLNVHVVVQMNNNGKPERRRNVILAKLHNGRMLEMQVHDRE”, the protease stability score is 0.064. For “DDQLRKKVKTFIRVIQSGNTQEAKKLMDPNARYHVGDKTVDGMDQWATIMTKLKDEMRIQLNVTSVTATNGHIHVRVEVNVDVNGRPINVTVNVYFHIENGRIQRVHYQMDPDEFKHIQR” the value was -0.135; for “DDQLSDQLDKARKQIEEGNFEQVREYVDPNVSVHVGDKSVHGREKYTHEILRKHQELRYKVEVTRVHVENGRLDVKAQETVNHNGRPESSRYVLDLNMHNGRLKHMTKSSDK”, -0.321. “DDQNLRSAVRRLVDGNEERAKDTLDENARVEVGEYNFHGREEAQKAFQTMQDRIDHINVKSYKYQGDKASVDMVVEFNGRSVKFVVVVRVHNGHLVNARVQFTDEHQHKRAKEMID”: the protease stability score is -0.104. “DDQQARDIAKELVKALQTGDPERFVELADPNARVEIGDKTYHGHDRMSEMIKTWHRDVDHIRIQDYRAKGDKIEIQFVLDINGKQNRLVMVVQVSNGRITVVFVRSG” registered a protease stability score of 1.35.

Take “DDQQKAKTHVRQVRDAATSNDPDEMRRLADENARFVVGDKEYEGRDQVRELVERERDNVDQVEIRLTDVEKRGDRLRLEVRVVWNHNGSHDHKILDMIVQNHNGTLRFVQLQQR”: the protease stability score was determined as 0.366.

Sequence “DDQRLRELNDTIAENIQSGDESKLSQLADPNVRLQIGDKEWHGREEMQKAWDELRRSADHIEIRSITAKGDHAVINAVLHHNGRTSQVRFDFSFHNGRIVRVSMHET” showed a protease stability score of 1.48. “DDQVAKMVRKLLRLEESGNEEELRKLADEEAEFVVGDKRYRGMTEYVQSVYHKKKEIRFKIITYSAEDDGDKIVVIIKMTNNHNGQPDTFRVKVVFVANNGNLKHANFRKRK” showed a protease stability score of 0.39.

“DDRDAERLVELWKTGDPDKFANHMRDDVRVQIGDKSVRGRDEAHKILERLRQQIDHWEIKDYEVHGERVIIHAVATVNGRHLNFVIVVQMHNGRIQSVQYKVTSEDDQHRIKKLLD”: the protease stability score was determined as 0.326. “DDRDAKHFKEIMKHGNFEEMVRQADPNVTITIGDREVHGRHQAQKFVDTLNDRIDHYQVDEIDVKGEKITAEVAMVVNGVRVDFVIVMHFENGRIKSVRIEATNEHAHENFRRIHS”: the protease stability score was determined as 0.561.

Turning to “DDRDEAHKLHEDYDRVMQTGDDDRVREMVDPNAKLRIGDQDLRGREELAELMKRQRDRADHVRIELRSVKVDGNKITMKLNFHLDHNGRTENTDATYHYEKDNGQWELKHAKVS”, the protease stability score is -0.052. With “DDRDEEKLQEQRKIHENNDEDRRKELVDPNVKFDVGDRHYHGRETNSKKFVDENREMRVEVDIKRVTNDEDHLRFEAHVVIRNNGQPDTKKVRLEQRLDGDKLKMERQEDKR” the figure was 0.276; with “DDRDIERAKEMFKAIKTGDPDRLSELVDENARVKIGDKEWHGNTEWVEDLERKKKEMSVDLQIHKIEDRNGVAQIHMTRRMDHNGKPRSDKYVLFIRARNGRIVDVRAEERS”, 0.097. “DDRDIERMAKDYVRAIRTGDEEQIRRLMDKDVKYEIGDKTIHGRENWAKWVKNFRRHADHVRLKDMRVHGNKIDLNMEFQVNGEKKRQKYDIQVHNGRIKTVRIEDS” yielded a protease stability score of 1.47. With “DDRDIKQAADRFLEDIKTNNPENVRKLVDENARVQIGDKQYRGKERIQEAMEEWIKRVDHWRIEDIKIHGDQVHVKMRINVNGRNLTFIMVVSIKNGTLKTLTMNVTDTEKLREMLR” the figure was 1.27; with “DDRDKVKSLWKQMLTILRTGDHKRWNKLVDKDVKYNIGDKSIHGKEEAEKLVKKIKDKVDTVSQTIVDVQNHNGRIHLRLRMVNNFNGNHNTYEVNAQFEKKNGRVKMQNQTDN”, 0.149. On to “DDRDLEQLLRELVTIWKNGNFEDLSRQADPNVKFRVGDKTYHGREQASKLWKKLSDQADHWSVDSVQAKGDTLRLDFRATVNGHEVRMVYHARIQNGSITSWEIQYTSEELHTRVER”, for which the protease stability score was found to be 1.09. For “DDRDLETMVRLWRDNDSKRLKQNVDPNARIRYGNFEVHGREQVQKWIKLFRDRVDHNDIKRYQTTPGRLVMQLSATFNGVKVKFTMIVEFHNGNIRLIQINFTDEENMKHLVREVE” the value was 1.55; for “DDRDLKRMADVLKTGDPDKLNENADKDAQVHVGNKRVHGREQFHEYQRRLREQIDHLHVKHIEITENKARIDYEFHVNGQKFSFTLTFQAHDGKLKRMSATFTSEEEEKRWDEIVD”, 0.302; for “DDRDRKKQMSKLIEIFKEGDPRKWMELLDENARIQIGDTRIRGREHASDWLKKLRDHVDSISIHDMEVDGNHIRVVIEVVIDGRSAVYKFVVHLKNGKVKHVDVSATSKEHENNMSR”, 1.5. Turning to “DDREEARKMLHKADRALNDGDPRSAQNLVDENAQVVYGDKRYSGDQQAADVMVSLRHQYDHLSLEIDRLRVDGNRVHVDATLTAQRNGSTLHSKLNFVFSKKNGRLRVSHLVIG”, the protease stability score was found to be 0.183.
